Source: US20020165186, “Compounds that affect CD83 expression, pharmaceutical compositions comprising said compounds and methods for identifying said compounds” (published 2002)

Experiments:
HuR (ELAV, ELAVL1) [1] = biological target: T1, HuR (ELAV, ELAVL1) (Homo sapiens, UniProt Q15717 SEQ:1-326); assay: EMSA; settings: tags: N-terminal GST (pGEX-5X-1), E. coli BL21, label: 32P-UTP
HuR (ELAV, ELAVL1) [2] = biological target: T1, HuR (ELAV, ELAVL1); assay: SPR; GST-HuR captured on CM5 chip; HBS-EP buffer; settings: tags: N-terminal GST (pGEX-5X-1), E. coli BL21; 3-pronged stem-loop (predicted)
Text: Specific protein-RNA interactions were detected by Surface Plasmon Resonance using the BIACore X optical biosensor (Pharmacia Biosensor AB, Upsala, Sweden).
The GST-fusion proteins of interest (GST alone or GST-ELAV (HuR)) were immobilized onto the surface of a CM5 Chip (Pharmacia Biosensor AB, Upsala, Sweden) by using the BIACore GST Capture Kit (Pharmacia Biosensor AB, Upsala, Sweden), according to the manufacturers instructions, until a change of at least 1,000 resonance units (RU) was detectable.
1 μg of in vitro transcribed RNA (using the T7/SP6 Riboprobe Kit, Promega, Mannheim, Germany) was diluted in a total volume of 80 μl HBS-EP buffer (10 mM HEPES, 150 mM NaCl, 3 mM EDTA, 0.005% (v/v) polysorbate 20) and was allowed to flow over the chip at a flow rate of 50μl/minute. The standard running buffer was HBS-EP buffer. The sensor surface was regenerated between assays by injecting 30 μl of 0.5 M NaCl to remove bound analyte.

T1 sequence (Q15717 whole entry T180A): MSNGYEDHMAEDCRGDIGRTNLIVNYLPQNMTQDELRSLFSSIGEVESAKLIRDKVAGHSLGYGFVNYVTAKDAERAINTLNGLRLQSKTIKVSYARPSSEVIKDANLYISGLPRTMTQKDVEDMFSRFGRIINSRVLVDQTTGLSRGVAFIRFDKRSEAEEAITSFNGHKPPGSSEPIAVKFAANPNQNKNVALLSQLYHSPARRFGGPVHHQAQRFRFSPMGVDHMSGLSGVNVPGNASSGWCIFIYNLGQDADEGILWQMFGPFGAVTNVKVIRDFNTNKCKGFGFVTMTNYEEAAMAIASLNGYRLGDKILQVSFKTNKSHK

B1: CD83 RNA nt295-465 (stem-loop-1) (ssRNA)
RNA: AGCUGCAACUCGGGGACAUACAGGUGCACUCUGCAGGACCCGGAUGGGCAGAGAAACCUAAGUGGCAAGGUGAUCUUGAGAGUGACAGGAUGCCCUGCACAGCGUAAAGAAGAGACUUUUAAGAAAUACAGAGCGGAGAUUGUCCUGCUGCUGGCUCUGGUUAUUUUCUAC
binding result (HuR (ELAV, ELAVL1) [1]; single stem-loop (nt412-465, predicted)): binds

B2: CD83 RNA nt466-618 (stem-loop-2) (ssRNA)
RNA: UUAACACUCAUCAUUUUCACUUGUAAGUUUGCACGGCUACAGAGUAUCUUCCCAGAUUUUUCUAAAGCUGGCAUGGAACGAGCUUUUCUCCCAGUUACCUCCCCAAAUAAGCAUUUAGGGCUAGUGACUCCUCACAAGACAGAACUGGUAUGA
binding result (HuR (ELAV, ELAVL1) [1]; 3-pronged stem-loop (predicted)): binds

B3: CD83 RNA nt466-615 (stem-loop-2) (ssRNA)
RNA: UUAACACUCAUCAUUUUCACUUGUAAGUUUGCACGGCUACAGAGUAUCUUCCCAGAUUUUUCUAAAGCUGGCAUGGAACGAGCUUUUCUCCCAGUUACCUCCCCAAAUAAGCAUUUAGGGCUAGUGACUCCUCACAAGACAGAACUGGUA
binding result (HuR (ELAV, ELAVL1) [2]): binds
